B1: P13B02-24 (antibody, IgG1, V domains shown)
VH: QVQMKQSGAEVVKPGASVKVSCTASGFNIKDTYIHWVRQAPGQGLEWIGEIDPANDNTKYDPKFQGRVTITADTSSNTVYLQLSSLRSEDTAVYYCATYYYRYDVGGFDYWGQGTLVTVSS
VL: EILLTQSPGTLSLSPGERATLSCSVSSSISSSNLHWFQQKPGQAPRLWIYGTSNLASGVPDRFSGSGSGTSYTLTISRLEPEDFAVYYCQQWSSYPFTFGQGTKVEIK
notes: Humanized; generated as full length IgG1
B2: P13B02-28 (antibody, IgG1, V domains shown)
VH: QVQLVQSGAEVKKPGASVKVSCKASGFNIKDTYIHWVRQAPGQGLEWMGEIDPANDNTKYDPKFQGRVTITADTSTSTVYMELSSLRSEDTAVYYCATYYYKYDVGGFDYWGQGTLVTVSS
VL: EIVLTQSPGTLSLSPGERATLSCSVSSSISSSNLHWYQQKPGQAPRLLIYGTSNLASGIPDRFSGSGSGTDFTLTISRLEPEDFAVYYCQQWSSYPFTFGQGTKVEIK
notes: as for B1
B3: P13B02-29 (antibody, IgG1, V domains shown)
VH: QVQLVQSGAEVKKPGASVKVSCTASGFNIKDTYIHWVRQAPGQGLEWMGEIDPANDNTKYDPKFQGRVTITADTSTSTVYMELSSLRSEDTAVYYCATYYYKYDVGGFDYWGQGTLVTVSS
VL: EIVLTQSPGTLSLSPGERATLSCSVSSSISSSNLHWYQQKPGQAPRLLIYGTSNLASGIPDRFSGSGSGTDFTLTISRLEPEDFAVYYCQQWSSYPFTFGQGTKVEIK
notes: as for B1
B4: P13B02-30 (antibody, V domains shown)
VH: QVQMVQSGAEVKKPGASVKVSCKASGFNIKDTYIHWVRQAPGQGLEWMGEIDPANDNTKYDPKFQGRVTITADTSTSTVYMELSSLRSEDTAVYYCATYYYKYDVGGFDYWGQGTLVTVSS
VL: EIVLTQSPGTLSLSPGERATLSCSVSSSISSSNLHWYQQKPGQAPRLLIYGTSNLASGIPDRFSGSGSGTDFTLTISRLEPEDFAVYYCQQWSSYPFTFGQGTKVEIK
notes: Humanized full length IgG1; made in three versions (G1m17; G1m17 N297A; G1m3 N297A)
B5: P13B02-31 (antibody, IgG1, V domains shown)
VH: QVQMVQSGAEVKKPGASVKVSCTASGFNIKDTYIHWVRQAPGQGLEWMGEIDPANDNTKYDPKFQGRVTITADTSTSTVYMELSSLRSEDTAVYYCATYYYKYDVGGFDYWGQGTLVTVSS
VL: EIVLTQSPGTLSLSPGERATLSCSVSSSISSSNLHWYQQKPGQAPRLLIYGTSNLASGIPDRFSGSGSGTDFTLTISRLEPEDFAVYYCQQWSSYPFTFGQGTKVEIK
notes: as for B1
B6: P13B02-32 (antibody, IgG1, V domains shown)
VH: QVQMKQSGAEVKKPGASVKVSCKASGFNIKDTYIHWVRQAPGQGLEWMGEIDPANDNTKYDPKFQGRVTITADTSTSTVYMELSSLRSEDTAVYYCATYYYKYDVGGFDYWGQGTLVTVSS
VL: EIVLTQSPGTLSLSPGERATLSCSVSSSISSSNLHWYQQKPGQAPRLLIYGTSNLASGIPDRFSGSGSGTDFTLTISRLEPEDFAVYYCQQWSSYPFTFGQGTKVEIK
notes: as for B1
B7: P13B02-33 (antibody, IgG1, V domains shown)
VH: QVQMKQSGAEVKKPGASVKVSCTASGFNIKDTYIHWVRQAPGQGLEWMGEIDPANDNTKYDPKFQGRVTITADTSTSTVYMELSSLRSEDTAVYYCATYYYKYDVGGFDYWGQGTLVTVSS
VL: EIVLTQSPGTLSLSPGERATLSCSVSSSISSSNLHWYQQKPGQAPRLLIYGTSNLASGIPDRFSGSGSGTDFTLTISRLEPEDFAVYYCQQWSSYPFTFGQGTKVEIK
notes: as for B1
B8: P13B02-34 (antibody, IgG1, V domains shown)
VH: QVQLKQSGAEVKKPGASVKVSCKASGFNIKDTYIHWVRQAPGQGLEWMGEIDPANDNTKYDPKFQGRVTITADTSTSTVYMELSSLRSEDTAVYYCATYYYKYDVGGFDYWGQGTLVTVSS
VL: EIVLTQSPGTLSLSPGERATLSCSVSSSISSSNLHWYQQKPGQAPRLLIYGTSNLASGIPDRFSGSGSGTDFTLTISRLEPEDFAVYYCQQWSSYPFTFGQGTKVEIK
notes: as for B1
B9: P13B02-35 (antibody, IgG1, V domains shown)
VH: QVQLKQSGAEVKKPGASVKVSCTASGFNIKDTYIHWVRQAPGQGLEWMGEIDPANDNTKYDPKFQGRVTITADTSTSTVYMELSSLRSEDTAVYYCATYYYKYDVGGFDYWGQGTLVTVSS
VL: EIVLTQSPGTLSLSPGERATLSCSVSSSISSSNLHWYQQKPGQAPRLLIYGTSNLASGIPDRFSGSGSGTDFTLTISRLEPEDFAVYYCQQWSSYPFTFGQGTKVEIK
notes: as for B1
B10: P13B02-36 (antibody, IgG1, V domains shown)
VH: QVQLVQSGAEVKKPGASVKVSCKASGFNIKDTYIHWVRQAPGQGLEWMGEIDPANDNTKYDPKFQGRVTITADTSSNTVYMELSSLRSEDTAVYYCATYYYKYDVGGFDYWGQGTLVTVSS
VL: EIVLTQSPGTLSLSPGERATLSCSVSSSISSSNLHWYQQKPGQAPRLLIYGTSNLASGIPDRFSGSGSGTDFTLTISRLEPEDFAVYYCQQWSSYPFTFGQGTKVEIK
notes: as for B1
B11: P13B02-37 (antibody, IgG1, V domains shown)
VH: QVQMKQSGAEVKKPGASVKVSCTASGFNIKDTYIHWVRQAPGQGLEWMGEIDPANDNTKYDPKFQGRVTITADTSSNTVYMELSSLRSEDTAVYYCATYYYKYDVGGFDYWGQGTLVTVSS
VL: EIVLTQSPGTLSLSPGERATLSCSVSSSISSSNLHWYQQKPGQAPRLLIYGTSNLASGIPDRFSGSGSGTDFTLTISRLEPEDFAVYYCQQWSSYPFTFGQGTKVEIK
notes: as for B1
B12: P13G05 Fab (Fab, V domains shown)
VH: QVQLQQSGAELVKPGASVELSCTASGFNIRDTYMYWVKQRPEQGLEWIGRIDPANGNTKFDPKFQDRATMTADTSSNTAYLQLSSLTSEDTAVYYCTTYFYRYDVGGFDYWGQGTTLTVS
VL: EIVLTQSPALMAASPGEKVTITCSVSSSISSSNLHWYQQKSGTSPKLWIYGTSNLASGVPVRFSGSGSGTSYSLTISSMEAEDAATYYCQQWSSYPFTFGSGTKLEIK
notes: Murine Fab, periplasmic extract
B13: P01A12 Fab (Fab, V domains shown)
VH: EVQLQQSGAELVKPGASVKLSCTASGFNIKDTYMYWVKQRPEQGLDWIGRIDPANGNTKFDPKFQGKATITADTSSNTAYLQLSSLTSEDTAVYYCSTYYYRYDVGGFDYWGQGTTLTVS
VL: DIVLTQSPALMAASPGEKVTITCSVSSSISSSNLHWYQQKSGTSPKLWIYGTSNLASGVPVRFSGSGSGTSYSLTISSMEAEDAATYYCQQWSSYPFTFGSGTKLEIK
notes: as for B12
B14: P05E03 Fab (Fab, V domains shown)
VH: QVQLKESGAELVKPGASVELSCTASGFNIRDTYMYWVKQRPEQGLEWIGRIDPANGNTKFDPKFQDRATMTADTSSNTAYLQLSSLTSEDTAVYYCTTYFYRYDVGGFDYWGQGTTLTVS
VL: EIVLTQSPALMAASPGEKVTITCSVSSSISSSNLHWYQQKSGTSPKLWIYGTSNLASGVPVRFSGSGSGTSYSLTISSMEAEDAATYYCQQWSSYPFTFGSGTKLEIK
notes: as for B12
B15: P05E01 Fab (Fab, V domains shown)
VH: DVQLVESGAELVKPGASVKLSCTASGFTIKDTYIHWVKQRPEQGLEWIGEIDPANGNTKYDPKFQGKATITADTSSNTAYLQLSSLTSEDTAVYYCATYYYRYDVGGFDYWGQGTTLTVS
VL: DIVLTQSPALMAASPGEKVTITCSVSSSISSSNLHWFQQKSGTSPKLWIYGTSNLASGVPVRFSGSGSGTSYSLTISNMEAEDAATYYCQQWNSYPLTFGAGTKLELK
notes: as for B12

Target: T1, recombinant human LAG-3 (human, UniProt P18627 23-450, limits assumed)
T1 sequence (looked up): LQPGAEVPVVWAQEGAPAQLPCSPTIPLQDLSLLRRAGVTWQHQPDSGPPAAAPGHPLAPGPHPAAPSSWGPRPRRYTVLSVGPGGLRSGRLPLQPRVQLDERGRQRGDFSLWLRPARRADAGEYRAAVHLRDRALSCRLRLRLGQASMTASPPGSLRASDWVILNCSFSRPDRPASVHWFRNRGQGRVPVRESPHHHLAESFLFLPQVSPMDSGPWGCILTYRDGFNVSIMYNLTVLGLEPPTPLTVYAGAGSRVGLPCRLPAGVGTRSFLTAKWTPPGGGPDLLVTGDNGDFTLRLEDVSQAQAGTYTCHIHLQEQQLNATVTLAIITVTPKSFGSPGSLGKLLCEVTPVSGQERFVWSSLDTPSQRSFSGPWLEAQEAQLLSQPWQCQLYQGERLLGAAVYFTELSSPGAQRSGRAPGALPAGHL
Assay: surface plasmon resonance (data not shown)

Row | Binder | binding result
1 | B1 | binds
2 | B2 | binds
3 | B3 | binds
4 | B4 | binds
5 | B5 | binds
6 | B6 | binds
7 | B7 | binds
8 | B8 | binds
9 | B9 | binds
10 | B10 | binds
11 | B11 | binds

Target: T2, human LAG-3 expressed on cells (human, UniProt P18627 23-525)
T2 construct: whole, on cells; also called CD223
T2 sequence (looked up): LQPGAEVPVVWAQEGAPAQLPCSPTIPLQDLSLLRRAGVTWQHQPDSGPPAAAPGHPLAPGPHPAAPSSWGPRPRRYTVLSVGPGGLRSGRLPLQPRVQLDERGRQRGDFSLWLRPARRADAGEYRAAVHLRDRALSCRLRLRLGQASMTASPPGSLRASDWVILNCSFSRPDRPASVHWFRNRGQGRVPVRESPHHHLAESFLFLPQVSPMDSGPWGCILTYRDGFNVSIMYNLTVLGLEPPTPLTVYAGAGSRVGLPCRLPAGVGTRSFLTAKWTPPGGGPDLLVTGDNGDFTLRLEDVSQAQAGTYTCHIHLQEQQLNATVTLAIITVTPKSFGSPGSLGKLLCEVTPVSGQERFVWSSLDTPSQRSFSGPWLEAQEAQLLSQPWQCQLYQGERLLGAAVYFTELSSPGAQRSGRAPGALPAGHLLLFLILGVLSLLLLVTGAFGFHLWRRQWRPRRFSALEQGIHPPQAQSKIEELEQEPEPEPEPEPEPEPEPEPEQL
Assay: flow cytometry, Fab periplasmic extract on Jurkat cells expressing human LAG-3 (FIGS. 1A-1C)
Description: The anti-LAG-3 Fabs from periplasmic extracts were tested for binding to LAG-3-expressing cells using flow cytometry. Briefly, wild type and human LAG-3-expressing Jurkat cells were plated at 2×10⁵ cells/well in sample buffer (PBS (Gibco, Cat #10010-015)+0.5% FBS (Gibco, Cat #10270-106)) in 96-well U-bottom plates (Sarstedt). 22 μl of anti-LAG-3 Fab periplasmic extract and 83 μl of diluted anti-c-myc antibody (Gentaur, Clone #9E10, Cat #04-cmyc-9E10) were incubated for 30 minutes at room temperature. 100 μl of the periplasmic extract/anti-c-myc mixture was added to cells and then incubated for one hour on ice. Cells were washed three times and then incubated with a goat anti-mouse APC (BD Biosciences, Cat #550826) for 30 minutes on ice. Cells were washed three times and then analyzed with a FACS machine (BD Accuri6).

Row | Binder | binding result
12 | B12 | binds
13 | B13 | binds

Target: T3, human LAG-3 (human, UniProt P18627 23-450, limits assumed)
T3 construct: Selections used human LAG-3-Fc, human LAG-3-6His, a 30 aa LAG-3 peptide and/or cells with cynomolgus LAG-3; also called CD223
T3 sequence (looked up): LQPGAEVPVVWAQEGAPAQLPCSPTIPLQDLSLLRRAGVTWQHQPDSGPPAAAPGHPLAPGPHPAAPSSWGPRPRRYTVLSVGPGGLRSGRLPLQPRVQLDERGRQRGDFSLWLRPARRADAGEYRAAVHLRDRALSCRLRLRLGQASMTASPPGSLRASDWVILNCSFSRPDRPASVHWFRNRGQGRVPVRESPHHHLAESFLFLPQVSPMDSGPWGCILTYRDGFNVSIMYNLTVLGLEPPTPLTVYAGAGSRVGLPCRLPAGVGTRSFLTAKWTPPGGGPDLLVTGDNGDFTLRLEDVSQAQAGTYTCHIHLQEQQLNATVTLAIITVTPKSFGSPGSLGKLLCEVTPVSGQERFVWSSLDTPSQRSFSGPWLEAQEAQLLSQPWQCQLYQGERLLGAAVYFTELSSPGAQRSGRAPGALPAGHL
Assay: Fab phage display selection; periplasmic extracts screened by ELISA or flow cytometry
Excerpt: Anti-LAG-3 antibodies were identified by generation and selection of an immunized Fab phage display library. […] Per mouse, a Fab library was then generated by random-primed cDNA using total RNA as a template to amplify variable regions from mouse antibody genes. Heavy and kappa chain amplicons were combined and cloned into phagemid vectors. […] The 30 amino acid human LAG-3 peptide is a biotinylated peptide comprising the amino acid sequence of […] (SEQ ID NO: 199). Periplasmic extracts of selected Fab clones were then screened by ELISA or flow cytometry. Antibody sequencing and off-rate analysis were then performed on anti-LAG-3 Fabs.

Row | Binder | binding result
14 | B12 | binds
15 | B13 | binds
16 | B14 | binds
17 | B15 | binds

From patent US20250206818A1 (AGENUS, published 2025)
